Reference: patent publication US20190248907A1 (Merck KGaA, published 2019)

B1: oa CS06 (antibody, V domains shown)
VH: QVQLQQSGAEVKKPGSSAKVSCKASGGTFSSNAISWVRQAPGQGLEWMGGIIPIFGTAIYAQKFQGRVTITADESTSTAYMELSSLRSEDTAVYYCARDQRGYYYYYYYGMDVWGQGTTVTVSS
VL: QLVLTQSPSVSVAPGKTARITCGGNNIRNVGVHWYQKKPGQAPILVVYDDDDRPSGVPERFSGSNSGNTATLTISRVEAGDEADYYCQVWDSATDQRVFGGGTKLTVL
notes: also called one-armed CS06; anti-c-MET clone CS06 (monovalent one-armed format); copies: 1 + 1
B2: biparatopic bispecific heterodimeric immunoglobulin molecule comprising Fab fragments CS06 and B10v5 (bispecific antibody)
chain 1: QLVLTQSPSVSVAPGKTARITCGGNNIRNVGVHWYQKKPGQAPILVVYDDDDRPSGVPERFSGSNSGNTATLTISRVEAGDEADYYCQVWDSATDQRVFGGGTKLTVLGQPKAG
chain 2: B1 VH
chain 3: EPVLTQPPSVSVAPGETATIPCGGDSLGSKIVHWYQQRPGQAPLLVVYDDAARPSGIPERFSGSKSGTTATLTISSVEAGDEADYFCQVYDYHSDVEVFGGGTKLTVLGQPKAA
chain 4: not shown
B3: CS06 IgG1 (antibody, V domains shown)
VH: B1 VH
VL: QLVLTQSPSVSVAPGKTARITCGGNNIRNVGVHWYQKKPGQAPILVVYDDDDRPSGVPERFSGSNSGNTATLTISRVEAGDEADYYCQVWDSATDQRVFGGGTKLTVLG
notes: Bivalent IgG1; also called anti-c-MET clone CS06

Biological target: T1, human c-MET ECD (human, UniProt P08581 25-932)
T1 construct: also called recombinant human c-MET ECD; human c-MET ECD-His
T1 sequence (P08581 25-932 limits assumed): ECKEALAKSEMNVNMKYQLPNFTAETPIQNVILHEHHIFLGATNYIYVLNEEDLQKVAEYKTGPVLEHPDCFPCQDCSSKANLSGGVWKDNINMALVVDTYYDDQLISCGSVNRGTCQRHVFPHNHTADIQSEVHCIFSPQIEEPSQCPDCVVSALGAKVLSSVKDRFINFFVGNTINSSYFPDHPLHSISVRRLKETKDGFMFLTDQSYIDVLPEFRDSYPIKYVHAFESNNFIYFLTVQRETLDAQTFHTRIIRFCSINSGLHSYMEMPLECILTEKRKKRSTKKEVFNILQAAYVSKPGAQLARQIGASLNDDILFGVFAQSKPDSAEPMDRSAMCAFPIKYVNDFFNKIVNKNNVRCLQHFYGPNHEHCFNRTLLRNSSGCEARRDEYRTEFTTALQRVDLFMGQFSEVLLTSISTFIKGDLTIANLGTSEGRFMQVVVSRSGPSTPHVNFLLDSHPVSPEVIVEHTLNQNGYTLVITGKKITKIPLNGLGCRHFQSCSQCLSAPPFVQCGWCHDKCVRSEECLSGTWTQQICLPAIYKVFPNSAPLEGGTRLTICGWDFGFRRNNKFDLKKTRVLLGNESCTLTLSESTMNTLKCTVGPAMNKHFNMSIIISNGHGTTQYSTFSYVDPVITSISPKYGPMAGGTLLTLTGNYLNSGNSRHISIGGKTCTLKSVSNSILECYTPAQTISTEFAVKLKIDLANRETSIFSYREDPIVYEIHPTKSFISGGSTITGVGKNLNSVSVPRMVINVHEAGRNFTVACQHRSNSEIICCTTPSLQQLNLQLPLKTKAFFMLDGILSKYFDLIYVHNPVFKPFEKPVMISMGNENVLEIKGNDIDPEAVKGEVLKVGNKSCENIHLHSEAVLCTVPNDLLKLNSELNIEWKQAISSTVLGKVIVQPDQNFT
Assay: not stated (summary of antibody properties, FIG. 6)

Q: With B1 as the binder, how does the Kd read?
A: ~300 pM

Q: Which Kd does the source give for B2 here?
A: ~19.6 pM

Q: B3 was tested. Which Kd did it give?
A: ~134 pM
